Each block holds one binder with its values, some of them ahead of it.
Tests used:
hVISTA-ECD [1] = target: hVISTA-ECD (human); assay: SPR pH 7.4, 37C
hVISTA-ECD [2] = target: hVISTA-ECD (human); assay: SPR pH 7.4, low or no binding
hVISTA-ECD [3] = target: hVISTA-ECD (human); assay: SPR pH 6.0, 37C
hVISTA-ECD [4] = target: hVISTA-ECD (human); assay: SPR pH 6.0
hVISTA-ECD [5] = target: hVISTA-ECD (human); assay: SPR pH 6.9
hVISTA-ECD [6] = target: hVISTA-ECD (human); assay: SPR pH 6.45
hVISTA-ECD [7] = target: hVISTA-ECD (human); assay: SPR pH 7.4, 37C; remark: listed apart in the source
hVISTA-ECD [8] = target: hVISTA-ECD (human); assay: SPR pH 6.9, 37C
hVISTA-ECD [9] = target: hVISTA-ECD (human); assay: SPR pH 7.4, 37C; remark: listed apart in the source
hVISTA-ECD [10] = target: hVISTA-ECD (human); assay: SPR pH 6.0, 37C; remark: listed apart in the source
hVISTA-ECD [11] = target: hVISTA-ECD (human); assay: SPR pH 6.0, 37C; remark: listed apart in the source
hVISTA-ECD [12] = target: hVISTA-ECD (human); assay: SPR pH 6.0, 37C; remark: listed apart in the source
hVISTA-ECD [13] = target: hVISTA-ECD (human); assay: SPR pH 6.45, 37C
hVISTA-ECD [14] = target: hVISTA-ECD (human); assay: SPR pH 6.45, low or no binding
hVISTA-ECD [15] = target: hVISTA-ECD (human); assay: SPR pH 7.4, 37C; remark: listed apart in the source
hVISTA-ECD [16] = target: hVISTA-ECD (human); assay: SPR pH 6.9, low or no binding

hVISTA-ECD (human), sequence (chain, as listed by the source): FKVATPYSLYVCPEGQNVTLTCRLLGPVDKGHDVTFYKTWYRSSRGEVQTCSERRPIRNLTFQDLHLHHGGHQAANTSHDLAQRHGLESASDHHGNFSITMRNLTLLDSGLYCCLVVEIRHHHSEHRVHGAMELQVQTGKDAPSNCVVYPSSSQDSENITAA

B1: P1-068748 (antibody, V domains shown)
VH: QVQLVESGGGVVQPGRSLRLSCAASGFTFSHHAMHWVRQAPGKGLEWVAIIWYDGSNDDYADSVKGRFTISRDNSKNTLYLQMNSLRAEDTAVYYCARDSGFYDSYYFDYWGQGTLVTVSS
VL: EIVLTQSPATLSLSPGERATLSCRASQSVSSSYLAWYQQKPGQAPRLLIYDASNRATGIPARFSGSGSGTDFTLTISSLEPEDFATYYCQQYNSYPYTFGQGTKLEIK
binding result (hVISTA-ECD [1]): no binding

B2: P1-068744 (antibody, V domains shown)
VH: QVQLVESGGGVVQPGRSLRLSCAASGFTFSEYAMHWVRQAPGKGLEWVAHIWYDGSNKYEADSVKGRFTISRDNSKNTLYLQMNSLRAEDTAVYYCARDSGFYESYYFDEWGQGTLVTVSS
VL: EIVLTQSPATLSLSPGERATLSCRASQSVSSSYLAWYQQKPGQAPRLLIYDASNRATGIPARFSGSGSGTDFTLTISSLEPEDFATYYCQQYNSYPYTFGQGTKLEIK
binding result (hVISTA-ECD [2]): no binding

B3: P1-068746 (antibody, V domains shown)
VH: QVQLVESGGGVVQPGRSLRLSCAASGFTFSSYAMHWVRQAPGKGLEWVAIIWYDGSNHHYADSVKGRFTISRDNSKNTLYLQMNSLRAEDTAVYYCARDSGFYDSYYFDYWGQGTLVTVSS
VL: EIVLTQSPATLSLSPGERATLSCRASQSVSSSYLAWYQQKPGQAPRLLIYDASNRATGIPARFSGSGSGTDFTLTISSLEPEDFATYYCQQYNSYPYTFGQGTKLEIK
koff (hVISTA-ECD [3]): > 0.01 s⁻¹

B4: P1-068742 (antibody, V domains shown)
VH: QVQLVESGGGVVQPGRSLRLSCAASGFTFSDYAMHWVRQAPGKGLEWVAIIWYDGSDKDYADSVKGRFTISRDNSKNTLYLQMNSLRAEDTAVYYCARDSGFYEDYYFDYWGQGTLVTVSS
VL: EIVLTQSPATLSLSPGERATLSCRASQSVSSSYLAWYQQKPGQAPRLLIYDASNRATGIPARFSGSGSGTDFTLTISSLEPEDFATYYCQQYNSYPYTFGQGTKLEIK
koff (hVISTA-ECD [3]): > 0.01 s⁻¹

B5: P1-068767 (antibody, V domains shown)
VH: EVQLVESGGGLVQPGKSLRLSCAASGFTLEDYAMHWVRQAPGKGLEWVSGIDWNSENIGYADSVKGRFTISRDNAKNSLYLQMNSLRTEDTALYYCAKVPGYSGGWIDAEDDWGQGTMVTVSS
VL: not shown
Kd (hVISTA-ECD [4]): 6.78 nM
Kd (hVISTA-ECD [5]): 385 nM
Kd (hVISTA-ECD [6]): 31.8 nM
Kd (hVISTA-ECD [7]): 19000 nM
Kd (hVISTA-ECD [8]): 400 nM
Kd (hVISTA-ECD [9]): 19000 nM
Kd (hVISTA-ECD [10]): 7.8 nM
Kd (hVISTA-ECD [11]): 7.6 nM
Kd (hVISTA-ECD [12]): 3.4 nM
Kd (hVISTA-ECD [13]): 38 nM
binding result (hVISTA-ECD [2]): no binding

B6: P1-070878 (P1-068761_E55A_E56N) (antibody, V domains shown)
VH: EVQLVESGGGLVQPGKSLRLSCAASGFTLEDEAMHWVRQAPGKGLEWVSGINWNSANIGYADSVKGRFTISRDNAKNSLYLQMNSLRTEDTALYYCAKVPGYSHGWIDAEDVWGQGTMVTVSS
VL: not shown
binding result (hVISTA-ECD [2]): no binding

B7: P1-070922 (P1-068767_E30D_E55A) (antibody, V domains shown)
VH: EVQLVESGGGLVQPGKSLRLSCAASGFTLDDYAMHWVRQAPGKGLEWVSGIDWNSANIGYADSVKGRFTISRDNAKNSLYLQMNSLRTEDTALYYCAKVPGYSGGWIDAEDDWGQGTMVTVSS
VL: not shown
binding result (hVISTA-ECD [2]): no binding

B8: P1-070870 (P1-068761_E56N) (antibody, V domains shown)
VH: EVQLVESGGGLVQPGKSLRLSCAASGFTLEDEAMHWVRQAPGKGLEWVSGINWNSENIGYADSVKGRFTISRDNAKNSLYLQMNSLRTEDTALYYCAKVPGYSHGWIDAEDVWGQGTMVTVSS
VL: not shown
binding result (hVISTA-ECD [2]): no binding

B9: P1-070904 (P1-068767_E30D) (antibody, V domains shown)
VH: EVQLVESGGGLVQPGKSLRLSCAASGFTLDDYAMHWVRQAPGKGLEWVSGIDWNSENIGYADSVKGRFTISRDNAKNSLYLQMNSLRTEDTALYYCAKVPGYSGGWIDAEDDWGQGTMVTVSS
VL: not shown
binding result (hVISTA-ECD [2]): no binding

B11: P1-068767 hIgG1f afucosylated (antibody, V domains shown)
VH: EVQLVESGGGLVQPGKSLRLSCAASGFTLEDYAMHWVRQAPGKGLEWVSGIDWNSENIGYADSVKGRFTISRDNAKNSLYLQMNSLRTEDTALYYCAKVPGYSGGWIDAEDDWGQGTMVTVSS
VL: not shown
Kd (hVISTA-ECD [9]): 24000 nM
Kd (hVISTA-ECD [10]): 7.9 nM

B18: P1-068761 hIgG1f afucosylated (antibody, V domains shown)
VH: EVQLVESGGGLVQPGKSLRLSCAASGFTLEDEAMHWVRQAPGKGLEWVSGINWNSEEIGYADSVKGRFTISRDNAKNSLYLQMNSLRTEDTALYYCAKVPGYSHGWIDAEDVWGQGTMVTVSS
VL: not shown
Kd (hVISTA-ECD [9]): 8200 nM
Kd (hVISTA-ECD [10]): 4.1 nM

B21: P1-061029 hIgG1f afucosylated (antibody, V domains shown)
VH: EVQLVESGGGLVQPGKSLRLSCAASGFTLDDYAMHWVRQAPGKGLEWVSGINWNSANIGYADSVKGRFTISRDNAKNSLYLQMNSLRTEDTALYYCAKVPGYSGGWIDAFDVWGQGTMVTVSS
VL: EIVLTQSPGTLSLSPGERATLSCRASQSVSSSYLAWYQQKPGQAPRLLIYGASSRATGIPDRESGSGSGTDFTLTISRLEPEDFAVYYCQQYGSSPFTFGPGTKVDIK
Kd (hVISTA-ECD [9]): 41 nM
Kd (hVISTA-ECD [10]): 6.9 nM

B23: P1-068767 hIgG1f (antibody, V domains shown)
VH: EVQLVESGGGLVQPGKSLRLSCAASGFTLEDYAMHWVRQAPGKGLEWVSGIDWNSENIGYADSVKGRFTISRDNAKNSLYLQMNSLRTEDTALYYCAKVPGYSGGWIDAEDDWGQGTMVTVSS
VL: not shown
Kd (hVISTA-ECD [9]): 22000 nM
Kd (hVISTA-ECD [10]): 8 nM

B25: P1-068773 (antibody, V domains shown)
VH: EVQLVESGGGLVQPGKSLRLSCAASGFTLEDYAMHWVRQAPGKGLEWVSGIDWNSDNIGYADSVKGRFTISRDNAKNSLYLQMNSLRTEDTALYYCAKVPGYSGGWIDAEDDWGQGTMVTVSS
VL: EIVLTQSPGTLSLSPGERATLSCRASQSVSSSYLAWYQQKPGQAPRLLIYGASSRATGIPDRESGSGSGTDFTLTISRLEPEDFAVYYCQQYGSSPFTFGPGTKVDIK
Kd (hVISTA-ECD [11]): 9.4 nM

Now from value to binder:

binding result (hVISTA-ECD [2]): no binding
B10: P1-068765 (antibody, V domains shown)
VH: EVQLVESGGGLVQPGKSLRLSCAASGFTDEDYAMHWVRQAPGKGLEWVSGINWNSEEIGYADSVKGRFTISRDNAKNSLYLQMNSLRTEDTALYYCAKVPGYSGGWIDAEDDWGQGTMVTVSS
VL: not shown

binding result (hVISTA-ECD [14]): no binding
B12: P1-068759 (antibody, V domains shown)
VH: EVQLVESGGGLVQPGKSLRLSCAASGFTLEDEAMHWVRQAPGKGLEWVSGIDWNSENIGYADSVKGRFTISRDNAKNSLYLQMNSLRTEDTALYYCAKVPGYSGGWIDAEDDWGQGTMVTVSS
VL: not shown

binding result (hVISTA-ECD [2]): no binding
B13: P1-070872 (P1-068761_H100G) (antibody, V domains shown)
VH: EVQLVESGGGLVQPGKSLRLSCAASGFTLEDEAMHWVRQAPGKGLEWVSGINWNSEEIGYADSVKGRFTISRDNAKNSLYLQMNSLRTEDTALYYCAKVPGYSGGWIDAEDVWGQGTMVTVSS
VL: not shown

binding result (hVISTA-ECD [15]): no binding
B14: P1-068775 (antibody, V domains shown)
VH: EVQLVESGGGLVQPGKSLRLSCAASGFTLEDEAMHWVRQAPGKGLEWVSGIDWNSEEIGYADSVKGRFTISRDNAKNSLYLQMNSLRTEDTALYYCAKVPGYSHGWIDAEDDWGQGTMVTVSS
VL: not shown

binding result (hVISTA-ECD [2]): no binding
B15: P1-070864 (P1-068761_E30D) (antibody, V domains shown)
VH: EVQLVESGGGLVQPGKSLRLSCAASGFTLDDEAMHWVRQAPGKGLEWVSGINWNSEEIGYADSVKGRFTISRDNAKNSLYLQMNSLRTEDTALYYCAKVPGYSHGWIDAEDVWGQGTMVTVSS
VL: not shown

binding result (hVISTA-ECD [15]): no binding
B16: P1-068771 (antibody, V domains shown)
VH: EVQLVESGGGLVQPGKSLRLSCAASGFTLEDEAMHWVRQAPGKGLEWVSGINWNSHEIGYADSVKGRFTISRDNAKNSLYLQMNSLRTEDTALYYCAKVPGYSGGWIDAEDDWGQGTMVTVSS
VL: not shown

binding result (hVISTA-ECD [16]): no binding
B17: P1-068757 (antibody, V domains shown)
VH: EVQLVESGGGLVQPGKSLRLSCAASGFTLEDEAMHWVRQAPGKGLEWVSGINWNSEEIGYADSVKGRFTISRDNAKNSLYLQMNSLRTEDTALYYCAKVPGYSGGWIDAEDDWGQGTMVTVSS
VL: not shown

binding result (hVISTA-ECD [15]): no binding
B19: P1-068769 (antibody, V domains shown)
VH: EVQLVESGGGLVQPGKSLRLSCAASGFTLEDEAMHWVRQAPGKGLEWVSGINWNSDHIGYADSVKGRFTISRDNAKNSLYLQMNSLRTEDTALYYCAKVPGYSGGWIDAEDDWGQGTMVTVSS
VL: not shown

binding result (hVISTA-ECD [2]): no binding
B20: P1-070890 (P1-068761_E30D_E55A) (antibody, V domains shown)
VH: EVQLVESGGGLVQPGKSLRLSCAASGFTLDDEAMHWVRQAPGKGLEWVSGINWNSAEIGYADSVKGRFTISRDNAKNSLYLQMNSLRTEDTALYYCAKVPGYSHGWIDAEDVWGQGTMVTVSS
VL: not shown

binding result (hVISTA-ECD [2]): no binding
B22: P1-070900 (P1-068761_E56N_H100G) (antibody, V domains shown)
VH: EVQLVESGGGLVQPGKSLRLSCAASGFTLEDEAMHWVRQAPGKGLEWVSGINWNSENIGYADSVKGRFTISRDNAKNSLYLQMNSLRTEDTALYYCAKVPGYSGGWIDAEDVWGQGTMVTVSS
VL: not shown

binding result (hVISTA-ECD [2]): no binding
B24: P1-068761 (antibody, V domains shown)
VH: EVQLVESGGGLVQPGKSLRLSCAASGFTLEDEAMHWVRQAPGKGLEWVSGINWNSEEIGYADSVKGRFTISRDNAKNSLYLQMNSLRTEDTALYYCAKVPGYSHGWIDAEDVWGQGTMVTVSS
VL: not shown

Reference: patent publication US12735488 (dated 2026)
